In US20250262210A1 (TRUSTEES OF COLUMBIA UNIVERSITY IN THE CITY OF NEW YORK, published 2025):

Tests used:
Test in all cases: IP/MS, LZTR1 R810W-FLAG, U87
POLR3A = molecular target: T1, POLR3A (human, UniProt O14802 1-1390)
T1 sequence (looked up): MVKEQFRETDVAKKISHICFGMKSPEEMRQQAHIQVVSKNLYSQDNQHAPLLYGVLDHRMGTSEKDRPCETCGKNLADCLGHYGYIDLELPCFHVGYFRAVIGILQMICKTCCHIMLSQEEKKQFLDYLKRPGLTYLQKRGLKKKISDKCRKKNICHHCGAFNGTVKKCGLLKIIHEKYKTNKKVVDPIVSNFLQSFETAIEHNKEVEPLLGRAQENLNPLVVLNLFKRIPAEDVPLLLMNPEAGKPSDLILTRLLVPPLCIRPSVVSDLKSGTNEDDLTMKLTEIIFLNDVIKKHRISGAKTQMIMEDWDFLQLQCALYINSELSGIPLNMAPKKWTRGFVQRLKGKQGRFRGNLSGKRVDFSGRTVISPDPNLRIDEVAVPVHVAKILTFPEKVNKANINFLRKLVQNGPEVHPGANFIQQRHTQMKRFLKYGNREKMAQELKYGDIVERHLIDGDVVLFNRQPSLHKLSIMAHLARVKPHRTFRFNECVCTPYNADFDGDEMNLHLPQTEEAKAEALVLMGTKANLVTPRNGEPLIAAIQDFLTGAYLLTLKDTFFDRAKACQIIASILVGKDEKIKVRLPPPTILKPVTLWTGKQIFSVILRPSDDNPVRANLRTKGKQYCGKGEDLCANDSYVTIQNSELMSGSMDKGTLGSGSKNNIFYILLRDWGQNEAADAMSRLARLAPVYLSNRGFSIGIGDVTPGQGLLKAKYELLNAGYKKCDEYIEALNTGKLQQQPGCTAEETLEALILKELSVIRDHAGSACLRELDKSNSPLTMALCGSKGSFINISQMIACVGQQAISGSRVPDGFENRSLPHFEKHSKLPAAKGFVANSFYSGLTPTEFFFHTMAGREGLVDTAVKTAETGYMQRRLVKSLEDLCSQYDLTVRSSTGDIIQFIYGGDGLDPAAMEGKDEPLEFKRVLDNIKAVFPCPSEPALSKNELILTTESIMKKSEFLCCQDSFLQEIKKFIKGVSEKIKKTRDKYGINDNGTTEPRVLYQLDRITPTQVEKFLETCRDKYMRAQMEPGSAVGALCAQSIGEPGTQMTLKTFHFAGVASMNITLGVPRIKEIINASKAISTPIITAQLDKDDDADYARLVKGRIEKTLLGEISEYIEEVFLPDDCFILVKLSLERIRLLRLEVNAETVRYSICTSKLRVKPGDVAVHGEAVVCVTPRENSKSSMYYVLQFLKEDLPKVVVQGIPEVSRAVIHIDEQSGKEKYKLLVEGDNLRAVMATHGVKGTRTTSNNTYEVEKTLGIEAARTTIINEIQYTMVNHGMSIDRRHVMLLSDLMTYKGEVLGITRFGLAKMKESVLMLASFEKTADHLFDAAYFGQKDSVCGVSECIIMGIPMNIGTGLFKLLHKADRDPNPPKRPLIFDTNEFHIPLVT
Method in brief: (§1)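 Extracted peptides in 3% acetonitrile/0.1% formic acid ran on a 50 cm C18 column into an Orbitrap Fusion, with MaxQuant identification and spectral counting.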

POLR1A = POLR1A (human, UniProt O95602 1-1720)
Method in brief: as §1

RNF213 = RNF213 (human, UniProt Q63HN8 1-5207, limits assumed)
Method in brief: as §1

Measured: binding result

RNF213, sequence (Q63HN8 whole entry): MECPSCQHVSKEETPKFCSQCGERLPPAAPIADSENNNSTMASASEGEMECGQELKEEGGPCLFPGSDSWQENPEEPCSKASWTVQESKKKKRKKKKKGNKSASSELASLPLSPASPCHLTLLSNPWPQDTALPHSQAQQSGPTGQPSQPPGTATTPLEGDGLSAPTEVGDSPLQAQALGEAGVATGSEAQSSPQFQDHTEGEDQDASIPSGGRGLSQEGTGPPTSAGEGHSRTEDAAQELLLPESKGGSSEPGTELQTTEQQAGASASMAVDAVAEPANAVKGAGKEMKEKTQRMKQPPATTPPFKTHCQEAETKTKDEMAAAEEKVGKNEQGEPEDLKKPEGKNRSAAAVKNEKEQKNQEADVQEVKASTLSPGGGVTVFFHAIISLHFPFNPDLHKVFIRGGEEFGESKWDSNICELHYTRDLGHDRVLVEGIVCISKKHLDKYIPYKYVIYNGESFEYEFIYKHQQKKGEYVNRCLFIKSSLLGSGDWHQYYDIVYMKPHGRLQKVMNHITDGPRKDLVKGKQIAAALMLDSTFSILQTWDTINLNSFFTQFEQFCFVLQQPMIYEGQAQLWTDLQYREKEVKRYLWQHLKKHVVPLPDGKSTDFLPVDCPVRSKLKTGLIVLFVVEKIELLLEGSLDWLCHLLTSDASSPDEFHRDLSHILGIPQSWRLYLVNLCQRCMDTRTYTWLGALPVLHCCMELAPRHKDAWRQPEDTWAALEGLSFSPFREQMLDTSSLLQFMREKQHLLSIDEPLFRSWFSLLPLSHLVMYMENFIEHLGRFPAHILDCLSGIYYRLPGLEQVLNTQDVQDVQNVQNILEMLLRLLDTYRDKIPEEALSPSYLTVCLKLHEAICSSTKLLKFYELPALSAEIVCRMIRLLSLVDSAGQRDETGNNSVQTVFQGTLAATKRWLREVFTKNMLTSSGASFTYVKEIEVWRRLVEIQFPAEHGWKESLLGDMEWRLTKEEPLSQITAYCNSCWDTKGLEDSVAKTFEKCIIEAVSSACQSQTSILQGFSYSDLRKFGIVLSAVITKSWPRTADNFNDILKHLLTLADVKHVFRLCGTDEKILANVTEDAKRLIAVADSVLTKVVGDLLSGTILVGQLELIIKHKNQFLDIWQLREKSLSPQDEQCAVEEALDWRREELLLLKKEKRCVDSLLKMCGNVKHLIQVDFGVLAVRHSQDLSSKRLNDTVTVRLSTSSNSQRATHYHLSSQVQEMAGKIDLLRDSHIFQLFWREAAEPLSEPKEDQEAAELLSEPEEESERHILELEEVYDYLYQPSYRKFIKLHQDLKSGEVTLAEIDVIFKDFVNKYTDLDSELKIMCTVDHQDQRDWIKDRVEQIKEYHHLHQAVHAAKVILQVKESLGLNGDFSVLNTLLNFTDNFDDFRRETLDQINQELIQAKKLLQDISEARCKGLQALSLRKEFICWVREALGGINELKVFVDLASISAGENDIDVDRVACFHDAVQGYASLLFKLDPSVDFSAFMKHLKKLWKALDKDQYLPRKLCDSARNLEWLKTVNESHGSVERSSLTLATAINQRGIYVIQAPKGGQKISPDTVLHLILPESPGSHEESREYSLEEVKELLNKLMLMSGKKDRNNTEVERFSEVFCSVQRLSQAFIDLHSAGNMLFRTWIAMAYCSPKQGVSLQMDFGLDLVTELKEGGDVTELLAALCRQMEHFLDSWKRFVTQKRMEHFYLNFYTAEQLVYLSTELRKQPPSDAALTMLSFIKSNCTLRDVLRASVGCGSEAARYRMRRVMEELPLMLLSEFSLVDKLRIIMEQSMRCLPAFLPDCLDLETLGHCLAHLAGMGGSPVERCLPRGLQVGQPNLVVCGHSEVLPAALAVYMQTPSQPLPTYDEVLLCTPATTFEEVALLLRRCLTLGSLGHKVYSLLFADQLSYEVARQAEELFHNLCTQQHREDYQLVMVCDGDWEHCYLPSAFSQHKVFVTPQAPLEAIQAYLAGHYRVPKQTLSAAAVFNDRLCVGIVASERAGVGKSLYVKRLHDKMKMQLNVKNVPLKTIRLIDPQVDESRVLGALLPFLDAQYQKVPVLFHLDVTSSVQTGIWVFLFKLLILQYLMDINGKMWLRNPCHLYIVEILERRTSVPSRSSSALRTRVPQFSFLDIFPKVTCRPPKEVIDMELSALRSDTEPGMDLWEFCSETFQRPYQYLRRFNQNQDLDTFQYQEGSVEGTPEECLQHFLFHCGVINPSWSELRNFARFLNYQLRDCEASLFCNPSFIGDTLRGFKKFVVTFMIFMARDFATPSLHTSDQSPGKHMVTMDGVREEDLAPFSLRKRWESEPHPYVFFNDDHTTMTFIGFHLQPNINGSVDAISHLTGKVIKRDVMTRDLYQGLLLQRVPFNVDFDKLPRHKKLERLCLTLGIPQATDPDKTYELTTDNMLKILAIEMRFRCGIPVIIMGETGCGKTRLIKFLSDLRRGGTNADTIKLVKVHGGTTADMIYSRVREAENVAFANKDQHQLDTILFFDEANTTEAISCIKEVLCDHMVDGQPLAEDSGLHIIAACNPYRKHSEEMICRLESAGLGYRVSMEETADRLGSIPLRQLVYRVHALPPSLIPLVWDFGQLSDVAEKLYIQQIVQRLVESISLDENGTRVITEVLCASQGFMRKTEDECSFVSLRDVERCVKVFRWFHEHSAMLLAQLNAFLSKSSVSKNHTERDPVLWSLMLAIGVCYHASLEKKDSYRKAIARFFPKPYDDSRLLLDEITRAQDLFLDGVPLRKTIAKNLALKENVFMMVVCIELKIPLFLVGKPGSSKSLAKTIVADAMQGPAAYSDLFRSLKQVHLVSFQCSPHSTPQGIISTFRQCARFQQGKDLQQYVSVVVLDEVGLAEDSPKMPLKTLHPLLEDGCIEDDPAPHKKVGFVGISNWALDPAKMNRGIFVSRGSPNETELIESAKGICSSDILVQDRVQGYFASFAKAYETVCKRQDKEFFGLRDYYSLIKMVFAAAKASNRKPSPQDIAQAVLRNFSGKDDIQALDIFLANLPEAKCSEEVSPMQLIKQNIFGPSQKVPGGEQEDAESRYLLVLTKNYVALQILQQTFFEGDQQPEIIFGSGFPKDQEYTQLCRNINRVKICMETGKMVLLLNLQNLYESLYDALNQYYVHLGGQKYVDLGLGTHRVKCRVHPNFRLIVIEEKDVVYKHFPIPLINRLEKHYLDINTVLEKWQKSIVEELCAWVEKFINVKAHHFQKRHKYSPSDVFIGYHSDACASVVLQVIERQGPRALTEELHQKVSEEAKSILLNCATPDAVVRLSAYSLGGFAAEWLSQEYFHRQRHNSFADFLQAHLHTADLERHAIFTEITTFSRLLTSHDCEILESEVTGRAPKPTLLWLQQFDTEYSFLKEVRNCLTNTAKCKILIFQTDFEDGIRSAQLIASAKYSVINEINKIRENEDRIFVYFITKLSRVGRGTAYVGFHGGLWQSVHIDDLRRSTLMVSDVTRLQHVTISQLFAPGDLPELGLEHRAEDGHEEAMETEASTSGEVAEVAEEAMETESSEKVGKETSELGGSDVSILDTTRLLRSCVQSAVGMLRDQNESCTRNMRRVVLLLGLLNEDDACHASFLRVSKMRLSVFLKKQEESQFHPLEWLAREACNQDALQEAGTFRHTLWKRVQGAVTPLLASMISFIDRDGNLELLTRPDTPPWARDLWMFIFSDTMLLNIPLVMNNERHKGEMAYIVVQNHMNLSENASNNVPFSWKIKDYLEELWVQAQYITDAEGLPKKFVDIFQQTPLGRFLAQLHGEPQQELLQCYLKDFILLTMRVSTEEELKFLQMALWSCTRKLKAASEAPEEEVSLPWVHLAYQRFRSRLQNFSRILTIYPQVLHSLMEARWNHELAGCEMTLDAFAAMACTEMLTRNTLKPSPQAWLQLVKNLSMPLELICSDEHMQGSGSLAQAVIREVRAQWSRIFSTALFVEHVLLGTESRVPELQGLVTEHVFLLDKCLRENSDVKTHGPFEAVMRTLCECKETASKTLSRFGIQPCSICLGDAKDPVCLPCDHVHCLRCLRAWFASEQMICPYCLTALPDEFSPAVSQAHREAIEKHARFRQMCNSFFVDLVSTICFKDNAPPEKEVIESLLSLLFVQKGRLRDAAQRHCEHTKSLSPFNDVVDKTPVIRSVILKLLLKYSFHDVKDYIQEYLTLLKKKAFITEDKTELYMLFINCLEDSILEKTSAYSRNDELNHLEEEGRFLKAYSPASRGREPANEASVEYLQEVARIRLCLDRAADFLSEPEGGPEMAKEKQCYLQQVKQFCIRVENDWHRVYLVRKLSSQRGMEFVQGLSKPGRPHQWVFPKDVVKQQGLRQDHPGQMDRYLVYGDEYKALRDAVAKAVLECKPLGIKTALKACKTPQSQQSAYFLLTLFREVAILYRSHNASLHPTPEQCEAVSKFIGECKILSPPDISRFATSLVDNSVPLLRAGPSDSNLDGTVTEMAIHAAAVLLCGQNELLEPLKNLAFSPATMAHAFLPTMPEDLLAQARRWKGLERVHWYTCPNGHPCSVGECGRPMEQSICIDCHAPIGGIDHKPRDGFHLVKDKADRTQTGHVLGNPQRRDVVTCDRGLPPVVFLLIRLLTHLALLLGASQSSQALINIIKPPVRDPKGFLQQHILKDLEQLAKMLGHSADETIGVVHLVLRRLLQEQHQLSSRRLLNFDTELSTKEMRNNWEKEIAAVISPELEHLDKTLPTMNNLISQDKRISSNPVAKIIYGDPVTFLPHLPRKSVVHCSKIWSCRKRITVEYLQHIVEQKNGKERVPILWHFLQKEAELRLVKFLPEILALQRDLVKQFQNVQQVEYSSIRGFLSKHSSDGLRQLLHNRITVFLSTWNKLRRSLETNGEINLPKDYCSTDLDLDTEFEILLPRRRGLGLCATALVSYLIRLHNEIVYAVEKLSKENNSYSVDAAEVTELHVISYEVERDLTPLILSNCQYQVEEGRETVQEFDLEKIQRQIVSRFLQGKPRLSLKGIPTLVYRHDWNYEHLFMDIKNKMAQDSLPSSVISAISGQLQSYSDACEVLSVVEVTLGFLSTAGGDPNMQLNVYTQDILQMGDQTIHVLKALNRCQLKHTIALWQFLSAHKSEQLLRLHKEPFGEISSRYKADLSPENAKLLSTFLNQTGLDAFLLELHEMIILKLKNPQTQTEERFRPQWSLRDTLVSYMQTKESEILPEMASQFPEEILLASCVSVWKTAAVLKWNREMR

B1: LZTR1 R810W-FLAG (other, human, UniProt Q8N653 1-840, looked up)
chain: MAGPGSTGGQIGAAALAGGARSKVAPSVDFDHSCSDSVEYLTLNFGPFETVHRWRRLPPCDEFVGARRSKHTVVAYKDAIYVFGGDNGKTMLNDLLRFDVKDCSWCRAFTTGTPPAPRYHHSAVVYGSSMFVFGGYTGDIYSNSNLKNKNDLFEYKFATGQWTEWKIEGRLPVARSAHGATVYSDKLWIFAGYDGNARLNDMWTIGLQDRELTCWEEVAQSGEIPPSCCNFPVAVCRDKMFVFSGQSGAKITNNLFQFEFKDKTWTRIPTEHLLRGSPPPPQRRYGHTMVAFDRHLYVFGGAADNTLPNELHCYDVDFQTWEVVQPSSDSEVGGAEVPERACASEEVPTLTYEERVGFKKSRDVFGLDFGTTSAKQPTQPASELPSGRLFHAAAVISDAMYIFGGTVDNNIRSGEMYRFQFSCYPKCTLHEDYGRLWESRQFCDVEFVLGEKEECVQGHVAIVTARSRWLRRKITQARERLAQKLEQEAAPVPREAPGVAAGGARPPLLHVAIREAEARPFEVLMQFLYTDKIKYPRKGHVEDVLLIMDVYKLALSFQLCRLEQLCRQYIEASVDLQNVLVVCESAARLQLSQLKEHCLNFVVKESHFNQVIMMKEFERLSSPLIVEIVRRKQQPPPRTPLDQPVDIGTSLIQDMKAYLEGAGAEFCDITLLLDGHPRPAHKAILAARSSYFEAMFRSFMPEDGQVNISIGEMVPSRQAFESMLRYIYYGEVNMPPEDSLYLFAAPYYYGFYNNRLQAYCKQNLEMNVTVQNVLQILEAADKTQALDMKRHCLHIIVHQFTKVSKLPTLWSLSQQLLLDIIDSLASHISDKQCAELGADI
notes: Stably expressed in U87 cells by lentivirus; also called LZTR1-FLAG-R810W; LZTR1 RW; not shown: FLAG tag
binds: all assays above
